Ends that are not written are not given here.

For test [1], the target named is platelet integrin αIIbβ3 (human) (UniProt P05106). The experiment in a line: optical trap-based force spectroscopy; as a5, with free γC-12 or cRGDFK present; concentrations not given.
Test [2] has the same target. The experiment in a line: optical trap-based force spectroscopy; as a1, with a competitive antagonist of αIIbβ3 (γC-12, cRGDFK or eptifibatide) present; concentrations not given.
Test [3] has the same target. The experiment in a line: optical trap-based force spectroscopy; as a7, with free γC-12 or cRGDFK present; concentrations not given.
The next test concerns the target fibrinogen (human) (UniProt P02671). As to the kind of experiment: optical trap-based force spectroscopy; Mn^2+-activated αIIbβ3 on a laser-trapped latex bead tapped against a silica pedestal covalently coated with fibrinogen; 0.1 M HEPES, pH 7.4, 2 mg/ml BSA, 0.1% Triton X-100; two-state fit of the rupture force profile.
The target in test [4] is polymerized fibrin (human) (UniProt P02679). As to the kind of experiment: optical trap-based force spectroscopy; Mn^2+-activated αIIbβ3 (or BSA) on a laser-trapped 2.0 µm latex bead tapped against the edge of a fibrin clot in a flow chamber; 0.1 M HEPES, pH 7.4, 2 mg/ml BSA, 0.1% Triton X-100; 5 Hz, 800 nm amplitude; clot from re-calcified plasma or from purified fibrinogen, which one gave the tabulated data is not given; two-state fit of the rupture force profile.

For test [5] the target is unchanged. As to the kind of experiment: optical trap-based force spectroscopy; as a1, but with non-activated αIIbβ3 (no Mn^2+ activation) on the bead.
A further test deals with monomeric fibrin (human) (UniProt P02679). The experiment in a line: optical trap-based force spectroscopy; Mn^2+-activated αIIbβ3 on a laser-trapped latex bead tapped against a silica pedestal covalently coated with monomeric fibrin; 0.1 M HEPES, pH 7.4, 2 mg/ml BSA, 0.1% Triton X-100; two-state fit of the rupture force profile.

Chain of UniProt P02679 (P02679 whole entry, looked up): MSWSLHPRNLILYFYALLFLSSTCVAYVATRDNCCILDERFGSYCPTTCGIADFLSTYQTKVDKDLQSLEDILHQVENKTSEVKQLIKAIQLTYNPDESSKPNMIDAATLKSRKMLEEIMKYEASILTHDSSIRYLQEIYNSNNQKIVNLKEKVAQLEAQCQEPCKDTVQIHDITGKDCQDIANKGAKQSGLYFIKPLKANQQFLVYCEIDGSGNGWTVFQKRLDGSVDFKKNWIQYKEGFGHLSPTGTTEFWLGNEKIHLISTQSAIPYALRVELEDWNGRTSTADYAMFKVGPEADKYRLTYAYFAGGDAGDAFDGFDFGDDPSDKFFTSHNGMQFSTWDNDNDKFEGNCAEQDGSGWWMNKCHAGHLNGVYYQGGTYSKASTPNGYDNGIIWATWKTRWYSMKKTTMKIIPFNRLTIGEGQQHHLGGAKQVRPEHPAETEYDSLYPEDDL
Chain of UniProt P02671 (P02671 36-866, chain 1 of 3): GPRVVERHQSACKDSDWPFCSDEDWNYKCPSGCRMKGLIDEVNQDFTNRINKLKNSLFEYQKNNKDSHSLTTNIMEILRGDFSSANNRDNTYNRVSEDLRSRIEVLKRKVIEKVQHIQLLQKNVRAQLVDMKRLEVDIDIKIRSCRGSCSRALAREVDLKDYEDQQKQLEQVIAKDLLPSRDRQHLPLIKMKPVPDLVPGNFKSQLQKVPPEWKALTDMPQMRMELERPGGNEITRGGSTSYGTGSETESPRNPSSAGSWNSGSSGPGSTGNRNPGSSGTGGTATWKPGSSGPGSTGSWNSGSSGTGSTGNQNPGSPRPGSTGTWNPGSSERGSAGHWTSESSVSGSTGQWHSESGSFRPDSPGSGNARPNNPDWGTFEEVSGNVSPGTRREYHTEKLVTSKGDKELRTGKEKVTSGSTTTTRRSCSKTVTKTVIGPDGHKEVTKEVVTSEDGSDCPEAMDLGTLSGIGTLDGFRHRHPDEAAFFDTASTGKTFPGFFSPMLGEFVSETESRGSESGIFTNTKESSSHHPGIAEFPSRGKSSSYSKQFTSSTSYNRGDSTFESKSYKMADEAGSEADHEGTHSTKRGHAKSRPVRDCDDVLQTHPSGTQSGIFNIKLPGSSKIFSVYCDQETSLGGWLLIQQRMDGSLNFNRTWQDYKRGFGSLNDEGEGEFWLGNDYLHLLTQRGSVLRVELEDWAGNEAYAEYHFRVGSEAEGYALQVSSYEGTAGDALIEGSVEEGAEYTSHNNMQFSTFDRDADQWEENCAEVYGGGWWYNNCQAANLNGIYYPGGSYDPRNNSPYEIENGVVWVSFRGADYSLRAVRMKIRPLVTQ
Chain of UniProt P02671 (P02675 45-491, chain 2 of 3, further chain): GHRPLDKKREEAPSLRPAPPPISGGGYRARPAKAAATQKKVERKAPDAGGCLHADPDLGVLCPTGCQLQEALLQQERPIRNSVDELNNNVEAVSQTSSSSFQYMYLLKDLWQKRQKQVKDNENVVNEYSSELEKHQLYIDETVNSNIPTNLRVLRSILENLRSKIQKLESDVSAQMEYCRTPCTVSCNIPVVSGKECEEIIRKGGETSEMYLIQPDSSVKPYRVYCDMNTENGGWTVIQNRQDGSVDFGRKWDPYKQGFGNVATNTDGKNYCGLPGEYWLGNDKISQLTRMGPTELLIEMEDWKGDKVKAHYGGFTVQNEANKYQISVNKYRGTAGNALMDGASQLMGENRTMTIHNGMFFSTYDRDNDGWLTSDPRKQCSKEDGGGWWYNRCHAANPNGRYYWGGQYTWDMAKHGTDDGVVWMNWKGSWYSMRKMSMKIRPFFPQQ
Chain of UniProt P02671 (P02679 other isoform, or with tags, fused parts or gaps, chain 3 of 3, further chain): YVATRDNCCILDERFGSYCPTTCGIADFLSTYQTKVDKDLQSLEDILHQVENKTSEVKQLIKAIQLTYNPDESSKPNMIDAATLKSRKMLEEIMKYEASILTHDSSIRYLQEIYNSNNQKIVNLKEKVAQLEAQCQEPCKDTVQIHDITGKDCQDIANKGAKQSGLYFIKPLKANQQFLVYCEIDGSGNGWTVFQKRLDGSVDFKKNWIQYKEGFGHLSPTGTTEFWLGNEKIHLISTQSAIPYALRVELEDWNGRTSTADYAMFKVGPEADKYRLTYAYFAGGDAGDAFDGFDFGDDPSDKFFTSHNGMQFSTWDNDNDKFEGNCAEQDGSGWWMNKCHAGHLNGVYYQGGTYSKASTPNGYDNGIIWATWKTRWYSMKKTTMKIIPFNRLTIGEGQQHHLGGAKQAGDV

In test [1], “fibrinogen γC-dodecapeptide (from UniProt P02679-2 426-437)” came in with a cumulative binding probability of αIIbβ3 to m-fibrin with γC-12 present, rupture forces 30–60 pN of 7.4% and a cumulative binding probability of αIIbβ3 to m-fibrin with γC-12 present, rupture forces >60 pN of 12.3%. In test [2], this molecule displayed a cumulative binding probability of αIIbβ3 to p-fibrin with γC-12 present, rupture forces 30–60 pN of 2.1% and a cumulative binding probability of αIIbβ3 to p-fibrin with γC-12 present, rupture forces >60 pN of 0.8%. In addition, in test [3], the cumulative binding probability of αIIbβ3 to fibrinogen with γC-12 present, rupture forces 30–60 pN turned out to be 1.8% and the cumulative binding probability of αIIbβ3 to fibrinogen with γC-12 present, rupture forces >60 pN came to 0.2%.

For “platelet integrin αIIbβ3 (from UniProt P05106 27-788) (receptor)”, in the test with fibrinogen (human), the cumulative binding probability, rupture forces 30–60 pN turned out to be 4.8%; the cumulative binding probability, rupture forces >60 pN was found to be 3.6%; the highest rupture force is less than 140 pN; the initial probability of the high-affinity state (two-state fit) came to 0.0063. Besides, in the test with fibrinogen (human), the peak of the strong rupture forces was in the range of 70 to 80 pN. For the same molecule, in test [4], the cumulative binding probability, rupture forces 30–60 pN stood at 4.6%; the cumulative binding probability, rupture forces >60 pN is 3.2%; the initial probability of the high-affinity state (two-state fit) is 0.014; the peak of the strong rupture forces lay in the range of 70 to 80 pN. In test [5], this molecule came in with a cumulative binding probability, rupture forces 30–60 pN of 4.7% and a cumulative binding probability, rupture forces >60 pN of 1.7%. In the test with monomeric fibrin (human), this molecule had a cumulative binding probability, rupture forces 30–60 pN of 21%; a cumulative binding probability, rupture forces >60 pN of 22%; a highest rupture force of less than 140 pN; an initial probability of the high-affinity state (two-state fit) of 0.0181. For the same molecule, the peak of the strong rupture forces in the test with monomeric fibrin (human) lay in the range of 70 to 80 pN.

Regarding RGDFK (also: cyclic, ring type not given here) [cyclic RGDFK peptide], in test [1], the cumulative binding probability of αIIbβ3 to m-fibrin with cRGDFK present, rupture forces 30–60 pN is 5.1% and the cumulative binding probability of αIIbβ3 to m-fibrin with cRGDFK present, rupture forces >60 pN amounted to 2.7%. Also, in test [2], the cumulative binding probability of αIIbβ3 to p-fibrin with cRGDFK present, rupture forces 30–60 pN came to 2.2% and the cumulative binding probability of αIIbβ3 to p-fibrin with cRGDFK present, rupture forces >60 pN was determined as 0.6%. Further, in test [3], the cumulative binding probability of αIIbβ3 to fibrinogen with cRGDFK present, rupture forces 30–60 pN stood at 2.5% and the cumulative binding probability of αIIbβ3 to fibrinogen with cRGDFK present, rupture forces >60 pN is 0.3%.

These data come from paper PMC5636895.
